This is an account of results in the supplement of paper PMC12042874.

± gives the uncertainty stated by the source.

This data set in a line: amyloid nucleation score (Sup35N fusion, yeast selection) (log enrichment); library NNK2; higher = more nucleation; inactive = no reads after selection. The method, boiled down:
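Three technical output replicates were used for random libraries. Psi-negative yeast expressing peptides of 20 random codons fused to Sup35N were induced with 100 μM copper sulfate for 24 hours and grown 7 days at 30°C on medium lacking adenine and uracil, and input and output plasmid inserts were Illumina-sequenced, excluding sequences with under 100 input reads. The nucleation score is the DiMSum log enrichment of output over input reads, centred on the mode score of non-aggregating sequences.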

YNARFSTNLTRFGVGF: the amyloid nucleation score was -1.15 ± 1.1. To DNILICMYGDVYMGCYCQAI belongs 8.632 ± 0.05; to FWFMVCLIAG, -0.223 ± 0.48; to AEWISLQQFLSLQKEFWIKA, -0.596 ± 0.76. On to PKPLVGMLCCHSMTRGKVTL, for which the amyloid nucleation score amounted to 3.28 ± 0.07. With YESGVSCFFVYVMNTYHIWG the figure was 5.17 ± 0.097; with GLRRVKFYIKVIFAKSSLVI, -1.84 ± 0.49; with VMWASERWYANETNSHLFSL, -0.105 ± 0.26. To IHNWIDSVERTALDMWERNA belongs 1.98 ± 0.14; to GGNVLRE, -0.527 ± 0.35. For VNNYWNDSCARSLNMGRTGR, the amyloid nucleation score worked out at 0.791 ± 0.27. To NADPNCLSK belongs 0.508 ± 0.57; to RDVWVRGLACLVASSTMHSS, 0.999 ± 0.32. VLSENITSLISKCYCFKSHL came in with an amyloid nucleation score of 6.021 ± 0.038. Substance IKYRFGGLGPRPPNGRRFE displayed an amyloid nucleation score of 0.635 ± 0.65. To TVMKDYMALESSSYVNPMLI belongs -0.251 ± 0.76; to VWCCHLNINVASSLTVSCTR, 0.544 ± 0.21. To LHGQVYMIQG belongs 2.17 ± 0.13; to LFVRAFEPSGDHLCYQYVCL, -0.566 ± 0.38. GFVYQVIITIRHVCSLKRNR yielded an amyloid nucleation score of 0.76 ± 0.16. With PMRMKFCQWLFHPP the figure was -0.983 ± 0.61; with FVEGLYWVSVVILG, -1.58 ± 1; with FLQRSRNMNCLRGHDFNSNG, 0.053 ± 1.1. Consider QRSNGTNYHPPYKMKISHRP, for which the amyloid nucleation score result is “inactive”.

As to NISFGSYILLRFLMRVE, the amyloid nucleation score is 0.58 ± 0.6.

The substance YAKNYSILQACQLDHWEFGV displayed an amyloid nucleation score of 4.04 ± 0.056.

Substance IFSLDFSGYVSLYLQKMNVL yielded an amyloid nucleation score of 0.815 ± 0.15. To TCSCSLVFYMILARG belongs -0.053 ± 0.63. YEHVIGVWYLGCQGGWVGDH displayed an amyloid nucleation score of 0.354 ± 0.29.

On to TISFELSGMGIPSLWICGSR, for which the amyloid nucleation score came to 0.252 ± 0.65. With GISVICLYGVQYSDVGGVNL the figure was 5.098 ± 0.043; with EMICVYSNFMKWVWSSFQTV, -0.832 ± 0.33. With MGLMNCSYSVKKQAAVIRTD the figure was 0.06 ± 0.17; with PCSRPTLLPCHCGTTTTSHI, 2.4 ± 0.1; with PCLRKNRYRLWLYTMVIQTQ, 0.806 ± 0.32. With YITVSSESAWHYTDQATFDA, the amyloid nucleation score was -0.129 ± 1.1. To LRYSTSHSKNRRSDALNIKG belongs -0.739 ± 0.45; to IHIWGSLSIDIEFVCGRQAK, 1.99 ± 0.27. With YLRTCI the figure was -0.084 ± 0.49. To DSLPSRNSNIGWIQWILWGI belongs -0.121 ± 1.1.

As for GRLLQGWLIAEHVITVHFPM, the amyloid nucleation score result is “inactive”. To FRIYA belongs 0.388 ± 0.29; to LWTKFDSPSRVCHKSQLSKA, 0.192 ± 0.26. For FVEMLYLGDVGDCHILQCVY, the amyloid nucleation score entry was “inactive”. To SYMDE belongs 4.33 ± 0.06; to TVHCGMQWWLVARRPRNEAQ, 1.25 ± 0.38. To HFIIYYDSYNTMVIGEFAVQ belongs “inactive”. With YFDSDRS the figure was -0.502 ± 0.76; with RVYLMLLVQYRTWSYVFVDC, -0.402 ± 0.26. Turning to MNVMNQSSFHMV, the amyloid nucleation score was -0.108 ± 1.1. With RMRVIISR the figure was -0.881 ± 0.4; with CRLGLLF, 0.767 ± 0.66. As for GSNHRSVVFIFLMLMGFMES, the amyloid nucleation score is -0.205 ± 0.76. To LAVLGIYDTLLYCHTVLYEI belongs -0.302 ± 0.36. As to GNVECS, the amyloid nucleation score was -0.463 ± 0.45. In turn, WSRQHDSLMVLWGCRGYY displayed an amyloid nucleation score of 0.148 ± 0.5.

On to FWYLLSLGQIIRSVNLGNWI, for which the amyloid nucleation score is -0.78 ± 1.1. To RSNSMMLCFASDIVRFYHMG belongs 2.71 ± 0.14. As for FNMTIVDISLYRFMNVLKRP, the amyloid nucleation score was -0.907 ± 0.78. In the case of PVIQYVTSG, the amyloid nucleation score is -0.257 ± 0.5.

As to NCWRNGCVQLFRWY, the amyloid nucleation score amounted to 5.15 ± 0.092. IACIEHWALGWLLCVSGVRV returned an amyloid nucleation score of 0.534 ± 0.5. As for GPCDQSWAT, the amyloid nucleation score turned out to be 1.06 ± 0.19.

The substance NRAVGLLRYTMVMGT displayed an amyloid nucleation score of 0.026 ± 1.1. To EGCMSFFKRSQYATDQDLGA belongs -0.24 ± 0.39; to TNATSGGHMLMIYEDFNVYL, 2.49 ± 0.069. With REVDIISHTMGGHRFNRERN the entry was “inactive”; with AVVTPKMIMMGWTEGGINVR, -0.864 ± 0.76; with VIYSELGYHREPVLCG, -0.972 ± 0.49. To HVNRGYSLVTPRMEVDWQLS belongs 1.42 ± 0.15.

Take CMDQNVEPCSLVWQTYFPCY: the amyloid nucleation score is -0.419 ± 0.6. In turn, TLCLMVVFKSRYCSFRIHMM came in with an amyloid nucleation score of 0.21 ± 1.

For CTFKFMAVQFCG, the amyloid nucleation score came to 5.46 ± 0.073.

As to RECLRLDGGPMNWV, the amyloid nucleation score was 0.192 ± 1. Turning to LLVAEVV, the amyloid nucleation score was 0.538 ± 0.49. To DGKNYVKTNSNGIRNGMSIW belongs -0.576 ± 0.76; to WGMWCMFHCRVAS, -0.196 ± 1. With NICSTGPLFWNFLFVV the figure was 1.83 ± 0.15. On to CVAVDDD, for which the amyloid nucleation score turned out to be 0.624 ± 0.46. In the case of ELWLYFFL, the amyloid nucleation score was -1.07 ± 0.34.

Substance AWEAPPYMCRDILRSWRGRL showed an amyloid nucleation score of 0.757 ± 0.51. With GYLLGSDSGDGGPFVIERIK the figure was 0.687 ± 0.38; with VYRYFNLQVISFWMMARHTM, -1.32 ± 1.1; with LRYPKRGFPNHVLSIESKLD, -0.479 ± 1. Take FYIGILGDLWWRRR: the amyloid nucleation score turned out to be 1.15 ± 0.57. LQVMMYFWDEFVTKLEKVSG: the amyloid nucleation score is -0.809 ± 1.1. With GKGRMYES the figure was 0.738 ± 0.24. Substance KNIAISSRVADAGFWL gave an amyloid nucleation score of 2.31 ± 0.093. To KICWYQFKANMASQ belongs 4.41 ± 0.086; to TVLWSRLDPPPRERKL, 1.13 ± 0.34. To MRTNRLKSVV belongs 0.275 ± 0.33; to MCQDGCHGFLVTADQPQSGA, -0.148 ± 0.42. In the case of SMADFIV, the amyloid nucleation score was -0.767 ± 0.76. To GDGSRS belongs 0.813 ± 0.23; to LMFTCVMSFWRLSVRVILNY, 0.277 ± 0.41. For the substance SVIRSCVNIDSLVKVEWGAS, the amyloid nucleation score came to 6.717 ± 0.052.

Regarding QFFTLFDVSRRLHFNTWLRL, the amyloid nucleation score was -1.14 ± 0.64. With SSSEFDPSSGSCLYT the figure was -0.847 ± 0.34; with DLVRYFC, 4.26 ± 0.055; with TSCFLLILCLQMKCTSFTSS, 2.18 ± 0.11. With DCFSYSHLRGACNVECLFYP the figure was -0.645 ± 1.1; with WIVSF, 0.131 ± 0.29. Take TNWVDWESYISCGGNGFGGC: the amyloid nucleation score is -0.92 ± 0.39.

With VFWLLGCVHNRGVGQTSHKL, the amyloid nucleation score stood at 0.741 ± 0.47.

In the case of FVKYNCIFNASLTCHK, the amyloid nucleation score was 7.686 ± 0.038.

As for MSISSALNKSSHTNSSMWNK, the amyloid nucleation score is -0.277 ± 0.31. Substance NNRQK yielded an amyloid nucleation score of 0.63 ± 0.43. To SGGAVAYREAKWWSASNLRS belongs 0.373 ± 0.24. With HYSRD, the amyloid nucleation score was -0.593 ± 1.1.

The substance GLTLMSR yielded an amyloid nucleation score of 1.06 ± 0.12.

The substance RMGKRNFEQNSANQWVPMNP returned an amyloid nucleation score of 0.691 ± 0.6.

Take FPLVWA: the amyloid nucleation score amounted to 0.416 ± 0.22. To NRWAYGVFWHSWFIKSHFG belongs 0.14 ± 1; to RTNFVNGLAVVVRNM, -0.015 ± 0.45. In turn, TMNIKLWGAGTRRMFEMEPG yielded an amyloid nucleation score of 2.35 ± 0.22.

As to LVAVVQGFRCVCLDSKLTGV, the amyloid nucleation score entry was “inactive”.

Consider LYEVLESVMIGI, for which the amyloid nucleation score is -0.097 ± 0.6. To RRWQTTS belongs “inactive”; to RCGCHDCVFLR, -0.202 ± 0.46; to QYKIVVELYMLYNISKNVEG, 2.14 ± 0.16. With VYLFDTYGCSEQFHSVVGYK the figure was -0.916 ± 0.76; with SNGINN, “inactive”; with SFSVVGNHHVCMDYDMVLNG, 0.315 ± 0.32. For FCREWDRSRQKG, the amyloid nucleation score was 0.508 ± 0.25. With ISSNKGFVEVAVSWVPRDVR the figure was 0.744 ± 0.38; with RDVFVLCWDFFMVERCRDRC, 5.85 ± 0.072. Consider GYLFGSALKSDIQYHTESMF, for which the amyloid nucleation score result was “inactive”. As for SAFYKQCEWFFNLMANSLCG, the amyloid nucleation score was -0.021 ± 0.63. To LLLRGQLQVMPGDPARRMYV belongs 0.556 ± 0.29; to LMVESNWHALHLVYVFSYI, 0 ± 0.56; to RCMGPIVPFDVNS, -0.704 ± 0.33. To ERPWRRQRCAFKVSWVGADL belongs 0.632 ± 0.19.

As to VILMDMYHAGNSAMCLACGN, the amyloid nucleation score was -0.119 ± 0.49. With VGSGGKGSMFYGYIELIFM the figure was -0.641 ± 1.1; with VVNSVVPKRSRLCHFYFTGM, -1.02 ± 0.63; with LMVKSDTCLLSLLSPTPFRR, 3.67 ± 0.1. As for LAHVVNIVCFNF, the amyloid nucleation score was determined as 7.836 ± 0.026. To IGSWSTA belongs 0.367 ± 0.36. Consider SPYHKANGHKNVARLYFRWR, for which the amyloid nucleation score turned out to be 0.731 ± 0.41. ASVAGSV displayed an amyloid nucleation score of 0.781 ± 0.27.

KVLATMGDIGVVLSVMLVPV showed an amyloid nucleation score of 1.33 ± 0.3.
